Target: T1, NHERF3_4, Q5T2W1
T1 sequence (Q5T2W1 373-468, limits assumed, looked up): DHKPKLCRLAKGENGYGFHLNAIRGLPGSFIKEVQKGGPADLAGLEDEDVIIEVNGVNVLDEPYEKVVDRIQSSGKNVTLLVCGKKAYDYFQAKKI
Test: holdup assay
Parameters: key: below the threshold = too weak to quantify, mostly under pKd 3.1 to 4
Settings: plain residues with an end cap or a label only (N-terminal biotin on a linker: ado-ado)

Row | Binder | pKd
1 | QELLEYETTV [XKR7, Q5GH72] | below the threshold
2 | LRYARPADAL [PPP1R3G, B7ZBB8] | below the threshold

Target: SCRIB_3, Q14160
Test: holdup assay
Parameters: key: below the threshold = too weak to quantify, mostly under pKd 3.1 to 4
Settings: plain residues with an end cap or a label only (N-terminal biotin on a linker: ado-ado)

SCRIB_3, Q14160, sequence (Q14160 999-1103): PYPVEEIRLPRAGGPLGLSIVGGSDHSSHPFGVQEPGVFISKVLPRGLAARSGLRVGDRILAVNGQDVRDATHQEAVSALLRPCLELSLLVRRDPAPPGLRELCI

Row | Binder | pKd
3 | QELLEYETTV [XKR7, Q5GH72] | 4.81
4 | LRYARPADAL [PPP1R3G, B7ZBB8] | below the threshold

Target: T2, DVL3, Q92997
T2 sequence (Q92997 244-331, limits assumed, looked up): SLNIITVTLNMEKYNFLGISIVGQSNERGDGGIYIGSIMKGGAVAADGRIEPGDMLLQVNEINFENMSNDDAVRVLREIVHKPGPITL
Test: holdup assay
Parameters: key: below the threshold = too weak to quantify, mostly under pKd 3.1 to 4
Settings: plain residues with an end cap or a label only (N-terminal biotin on a linker: ado-ado)

Row | Binder | pKd
5 | QELLEYETTV [XKR7, Q5GH72] | below the threshold
6 | LRYARPADAL [PPP1R3G, B7ZBB8] | below the threshold

Target: T3, APBA3_1, O96018
T3 sequence (O96018 389-490, limits assumed, looked up): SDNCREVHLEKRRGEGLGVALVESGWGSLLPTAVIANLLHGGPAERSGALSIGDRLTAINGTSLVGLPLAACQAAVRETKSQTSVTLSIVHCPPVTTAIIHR
Test: holdup assay
Parameters: key: below the threshold = too weak to quantify, mostly under pKd 3.1 to 4
Settings: plain residues with an end cap or a label only (N-terminal biotin on a linker: ado-ado)

Row | Binder | pKd
7 | QELLEYETTV [XKR7, Q5GH72] | below the threshold
8 | LRYARPADAL [PPP1R3G, B7ZBB8] | below the threshold

Target: MAGI2_3, Q86UL8
Test: holdup assay
Parameters: key: below the threshold = too weak to quantify, mostly under pKd 3.1 to 4
Settings: plain residues with an end cap or a label only (N-terminal biotin on a linker: ado-ado)

MAGI2_3, Q86UL8, sequence (Q86UL8 600-682): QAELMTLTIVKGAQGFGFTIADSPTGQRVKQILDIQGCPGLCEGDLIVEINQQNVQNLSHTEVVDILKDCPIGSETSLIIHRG

Row | Binder | pKd
9 | QELLEYETTV [XKR7, Q5GH72] | below the threshold
10 | LRYARPADAL [PPP1R3G, B7ZBB8] | below the threshold

Target: LNX1_1, Q8TBB1
Test: holdup assay
Parameters: key: below the threshold = too weak to quantify, mostly under pKd 3.1 to 4
Settings: plain residues with an end cap or a label only (N-terminal biotin on a linker: ado-ado)

LNX1_1, Q8TBB1, sequence (Q8TBB1 261-371): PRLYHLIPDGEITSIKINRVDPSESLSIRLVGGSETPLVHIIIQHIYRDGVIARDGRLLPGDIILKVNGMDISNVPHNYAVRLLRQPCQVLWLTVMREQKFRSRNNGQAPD

Row | Binder | pKd
11 | QELLEYETTV [XKR7, Q5GH72] | 4.57
12 | LRYARPADAL [PPP1R3G, B7ZBB8] | below the threshold

Target: T4, CARD11, Q9BXL7
T4 sequence (Q9BXL7 662-765, limits assumed, looked up): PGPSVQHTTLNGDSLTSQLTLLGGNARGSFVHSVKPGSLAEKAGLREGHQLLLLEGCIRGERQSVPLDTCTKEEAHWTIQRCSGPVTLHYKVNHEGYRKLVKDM
Test: holdup assay
Parameters: key: below the threshold = too weak to quantify, mostly under pKd 3.1 to 4
Settings: plain residues with an end cap or a label only (N-terminal biotin on a linker: ado-ado)

Row | Binder | pKd
13 | QELLEYETTV [XKR7, Q5GH72] | below the threshold
14 | LRYARPADAL [PPP1R3G, B7ZBB8] | below the threshold

Target: T5, MPDZ_10, O75970
T5 sequence (O75970 1624-1722, limits assumed, looked up): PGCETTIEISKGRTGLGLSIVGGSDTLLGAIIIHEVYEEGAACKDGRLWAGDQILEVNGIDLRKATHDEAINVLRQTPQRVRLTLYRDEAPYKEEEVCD
Test: holdup assay
Parameters: key: below the threshold = too weak to quantify, mostly under pKd 3.1 to 4
Settings: plain residues with an end cap or a label only (N-terminal biotin on a linker: ado-ado)

Row | Binder | pKd
15 | QELLEYETTV [XKR7, Q5GH72] | below the threshold
16 | LRYARPADAL [PPP1R3G, B7ZBB8] | below the threshold

Target: GORASP1, Q9BQQ3
Test: holdup assay
Parameters: key: below the threshold = too weak to quantify, mostly under pKd 3.1 to 4
Settings: plain residues with an end cap or a label only (N-terminal biotin on a linker: ado-ado)

GORASP1, Q9BQQ3, sequence (Q9BQQ3 1-208): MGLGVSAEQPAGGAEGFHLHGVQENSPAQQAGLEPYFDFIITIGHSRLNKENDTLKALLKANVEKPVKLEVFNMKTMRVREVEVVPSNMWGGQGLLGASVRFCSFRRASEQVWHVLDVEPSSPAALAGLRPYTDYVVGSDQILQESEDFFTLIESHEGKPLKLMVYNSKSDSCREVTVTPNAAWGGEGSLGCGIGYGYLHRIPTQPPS

Row | Binder | pKd
17 | QELLEYETTV [XKR7, Q5GH72] | 4.23
18 | LRYARPADAL [PPP1R3G, B7ZBB8] | below the threshold

Target: MAGI2_4, Q86UL8
Test: holdup assay
Parameters: key: below the threshold = too weak to quantify, mostly under pKd 3.1 to 4
Settings: plain residues with an end cap or a label only (N-terminal biotin on a linker: ado-ado)

MAGI2_4, Q86UL8, sequence (Q86UL8 772-865): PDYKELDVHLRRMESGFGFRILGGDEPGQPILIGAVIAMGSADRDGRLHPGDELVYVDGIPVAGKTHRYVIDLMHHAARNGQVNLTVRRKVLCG

Row | Binder | pKd
19 | QELLEYETTV [XKR7, Q5GH72] | 4.26
20 | LRYARPADAL [PPP1R3G, B7ZBB8] | below the threshold

Target: LNX1_2, Q8TBB1
Test: holdup assay
Parameters: key: below the threshold = too weak to quantify, mostly under pKd 3.1 to 4
Settings: plain residues with an end cap or a label only (N-terminal biotin on a linker: ado-ado)

LNX1_2, Q8TBB1, sequence (Q8TBB1 371-470): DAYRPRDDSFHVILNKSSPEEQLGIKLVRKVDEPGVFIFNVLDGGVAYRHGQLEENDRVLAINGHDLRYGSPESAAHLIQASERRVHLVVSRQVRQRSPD

Row | Binder | pKd
21 | QELLEYETTV [XKR7, Q5GH72] | 3.73
22 | LRYARPADAL [PPP1R3G, B7ZBB8] | below the threshold

Target: Inadl_10, Q8NI35
Test: holdup assay
Parameters: key: below the threshold = too weak to quantify, mostly under pKd 3.1 to 4
Settings: plain residues with an end cap or a label only (N-terminal biotin on a linker: ado-ado)

Inadl_10, Q8NI35, sequence (Q8NI35 1673-1763): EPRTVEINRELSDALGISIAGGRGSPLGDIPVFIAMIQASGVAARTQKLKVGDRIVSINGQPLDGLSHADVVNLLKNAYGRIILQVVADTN

Row | Binder | pKd
23 | QELLEYETTV [XKR7, Q5GH72] | below the threshold
24 | LRYARPADAL [PPP1R3G, B7ZBB8] | below the threshold

Target: MAGI1_1, Q96QZ7
Test: holdup assay
Parameters: key: below the threshold = too weak to quantify, mostly under pKd 3.1 to 4
Settings: plain residues with an end cap or a label only (N-terminal biotin on a linker: ado-ado)

MAGI1_1, Q96QZ7, sequence (Q96QZ7 1-106): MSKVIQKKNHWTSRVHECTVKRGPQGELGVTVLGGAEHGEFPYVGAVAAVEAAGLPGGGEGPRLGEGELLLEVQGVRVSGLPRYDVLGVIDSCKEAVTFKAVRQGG

Row | Binder | pKd
25 | QELLEYETTV [XKR7, Q5GH72] | below the threshold
26 | LRYARPADAL [PPP1R3G, B7ZBB8] | below the threshold

Target: ARHGEF12, Q9NZN5-2
Test: holdup assay
Parameters: key: below the threshold = too weak to quantify, mostly under pKd 3.1 to 4
Settings: plain residues with an end cap or a label only (N-terminal biotin on a linker: ado-ado)

ARHGEF12, Q9NZN5-2, sequence (Q9NZN5 other isoform, or with tags, fused parts or gaps): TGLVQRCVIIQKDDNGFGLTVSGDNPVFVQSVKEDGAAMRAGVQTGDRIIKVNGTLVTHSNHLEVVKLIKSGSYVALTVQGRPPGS

Row | Binder | pKd
27 | QELLEYETTV [XKR7, Q5GH72] | 4.02
28 | LRYARPADAL [PPP1R3G, B7ZBB8] | below the threshold

Target: FRMPD4, Q14CM0
Test: holdup assay
Parameters: key: below the threshold = too weak to quantify, mostly under pKd 3.1 to 4
Settings: plain residues with an end cap or a label only (N-terminal biotin on a linker: ado-ado)

FRMPD4, Q14CM0, sequence (Q14CM0 67-160): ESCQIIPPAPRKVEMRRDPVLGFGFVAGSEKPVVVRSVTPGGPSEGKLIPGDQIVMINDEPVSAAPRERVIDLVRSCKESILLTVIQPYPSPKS

Row | Binder | pKd
29 | QELLEYETTV [XKR7, Q5GH72] | below the threshold
30 | LRYARPADAL [PPP1R3G, B7ZBB8] | 3.66

Target: NOS1, P29475
Test: holdup assay
Parameters: key: below the threshold = too weak to quantify, mostly under pKd 3.1 to 4
Settings: plain residues with an end cap or a label only (N-terminal biotin on a linker: ado-ado)

NOS1, P29475, sequence (P29475 9-101): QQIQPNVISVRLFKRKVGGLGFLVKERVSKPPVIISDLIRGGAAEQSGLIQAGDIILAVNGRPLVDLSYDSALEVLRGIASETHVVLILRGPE

Row | Binder | pKd
31 | QELLEYETTV [XKR7, Q5GH72] | below the threshold
32 | LRYARPADAL [PPP1R3G, B7ZBB8] | 4.36

Target: FRMPD2_3, Q68DX3
Test: holdup assay
Parameters: key: below the threshold = too weak to quantify, mostly under pKd 3.1 to 4
Settings: plain residues with an end cap or a label only (N-terminal biotin on a linker: ado-ado)

FRMPD2_3, Q68DX3, sequence (Q68DX3 1073-1166): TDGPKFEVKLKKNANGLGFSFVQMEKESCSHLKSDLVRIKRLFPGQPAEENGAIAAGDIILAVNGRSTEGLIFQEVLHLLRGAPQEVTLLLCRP

Row | Binder | pKd
33 | QELLEYETTV [XKR7, Q5GH72] | 3.63
34 | LRYARPADAL [PPP1R3G, B7ZBB8] | below the threshold

Target: GRIP2_5, Q9C0E4
Test: holdup assay
Parameters: key: below the threshold = too weak to quantify, mostly under pKd 3.1 to 4
Settings: plain residues with an end cap or a label only (N-terminal biotin on a linker: ado-ado)

GRIP2_5, Q9C0E4, sequence (Q9C0E4 544-642): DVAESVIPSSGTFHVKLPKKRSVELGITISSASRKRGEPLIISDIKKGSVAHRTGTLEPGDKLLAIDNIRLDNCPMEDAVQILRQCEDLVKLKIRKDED

Row | Binder | pKd
35 | QELLEYETTV [XKR7, Q5GH72] | 3.48
36 | LRYARPADAL [PPP1R3G, B7ZBB8] | below the threshold

Target: MAGI2_2, Q86UL8
Test: holdup assay
Parameters: key: below the threshold = too weak to quantify, mostly under pKd 3.1 to 4
Settings: plain residues with an end cap or a label only (N-terminal biotin on a linker: ado-ado)

MAGI2_2, Q86UL8, sequence (Q86UL8 410-522): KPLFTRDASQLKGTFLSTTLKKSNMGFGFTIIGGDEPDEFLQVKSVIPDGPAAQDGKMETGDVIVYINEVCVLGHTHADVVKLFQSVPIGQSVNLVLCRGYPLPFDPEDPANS

Row | Binder | pKd
37 | QELLEYETTV [XKR7, Q5GH72] | 3.76
38 | LRYARPADAL [PPP1R3G, B7ZBB8] | below the threshold

Target: T6, RADIL, Q96JH8
T6 sequence (Q96JH8 971-1071, limits assumed, looked up): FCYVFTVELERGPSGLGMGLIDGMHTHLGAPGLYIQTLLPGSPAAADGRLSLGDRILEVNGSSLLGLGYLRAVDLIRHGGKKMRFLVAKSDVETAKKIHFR
Test: holdup assay
Parameters: key: below the threshold = too weak to quantify, mostly under pKd 3.1 to 4
Settings: plain residues with an end cap or a label only (N-terminal biotin on a linker: ado-ado)

Row | Binder | pKd
39 | QELLEYETTV [XKR7, Q5GH72] | 4.73
40 | LRYARPADAL [PPP1R3G, B7ZBB8] | below the threshold

Target: MAGI3_2, Q5TCQ9
Test: holdup assay
Parameters: key: below the threshold = too weak to quantify, mostly under pKd 3.1 to 4
Settings: plain residues with an end cap or a label only (N-terminal biotin on a linker: ado-ado)

MAGI3_2, Q5TCQ9, sequence (Q5TCQ9 398-503): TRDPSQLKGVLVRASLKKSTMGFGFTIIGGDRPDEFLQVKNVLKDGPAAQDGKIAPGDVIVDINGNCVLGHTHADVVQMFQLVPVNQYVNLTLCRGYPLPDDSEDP

Row | Binder | pKd
41 | QELLEYETTV [XKR7, Q5GH72] | 4.44
42 | LRYARPADAL [PPP1R3G, B7ZBB8] | below the threshold

Target: DLG2_2, Q15700
Test: holdup assay
Parameters: key: below the threshold = too weak to quantify, mostly under pKd 3.1 to 4
Settings: plain residues with an end cap or a label only (N-terminal biotin on a linker: ado-ado)

DLG2_2, Q15700, sequence (Q15700 189-283): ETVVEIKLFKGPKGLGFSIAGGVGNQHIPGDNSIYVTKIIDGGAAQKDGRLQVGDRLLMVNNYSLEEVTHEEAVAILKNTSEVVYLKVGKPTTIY

Row | Binder | pKd
43 | QELLEYETTV [XKR7, Q5GH72] | 4.84
44 | LRYARPADAL [PPP1R3G, B7ZBB8] | below the threshold

Target: Inadl_9, Q8NI35
Test: holdup assay
Parameters: key: below the threshold = too weak to quantify, mostly under pKd 3.1 to 4
Settings: plain residues with an end cap or a label only (N-terminal biotin on a linker: ado-ado)

Inadl_9, Q8NI35, sequence (Q8NI35 1530-1615): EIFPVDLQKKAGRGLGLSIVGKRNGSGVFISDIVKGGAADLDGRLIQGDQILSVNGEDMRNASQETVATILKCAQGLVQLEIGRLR

Row | Binder | pKd
45 | QELLEYETTV [XKR7, Q5GH72] | 3.89
46 | LRYARPADAL [PPP1R3G, B7ZBB8] | below the threshold

Target: DLG4_1, P78352
Test: holdup assay
Parameters: key: below the threshold = too weak to quantify, mostly under pKd 3.1 to 4
Settings: plain residues with an end cap or a label only (N-terminal biotin on a linker: ado-ado)

DLG4_1, P78352, sequence (P78352 62-152): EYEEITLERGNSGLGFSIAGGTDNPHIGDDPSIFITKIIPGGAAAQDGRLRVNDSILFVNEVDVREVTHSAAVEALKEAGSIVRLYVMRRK

Row | Binder | pKd
47 | QELLEYETTV [XKR7, Q5GH72] | 4.94
48 | LRYARPADAL [PPP1R3G, B7ZBB8] | below the threshold

Target: Inadl_6, Q8NI35
Test: holdup assay
Parameters: key: below the threshold = too weak to quantify, mostly under pKd 3.1 to 4
Settings: plain residues with an end cap or a label only (N-terminal biotin on a linker: ado-ado)

Inadl_6, Q8NI35, sequence (Q8NI35 1058-1167): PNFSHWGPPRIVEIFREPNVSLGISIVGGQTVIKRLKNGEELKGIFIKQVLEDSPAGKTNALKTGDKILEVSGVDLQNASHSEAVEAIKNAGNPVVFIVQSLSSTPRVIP

Row | Binder | pKd
49 | QELLEYETTV [XKR7, Q5GH72] | 4.01
50 | LRYARPADAL [PPP1R3G, B7ZBB8] | below the threshold

Target: T7, MPP7, Q5T2T1
T7 sequence (Q5T2T1 134-230, limits assumed, looked up): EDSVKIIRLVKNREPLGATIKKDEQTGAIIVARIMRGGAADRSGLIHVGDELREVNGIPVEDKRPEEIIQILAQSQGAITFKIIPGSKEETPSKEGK
Test: holdup assay
Parameters: key: below the threshold = too weak to quantify, mostly under pKd 3.1 to 4
Settings: plain residues with an end cap or a label only (N-terminal biotin on a linker: ado-ado)

Row | Binder | pKd
51 | QELLEYETTV [XKR7, Q5GH72] | below the threshold
52 | LRYARPADAL [PPP1R3G, B7ZBB8] | below the threshold

Target: PTPN3, P26045
Test: holdup assay
Parameters: key: below the threshold = too weak to quantify, mostly under pKd 3.1 to 4
Settings: plain residues with an end cap or a label only (N-terminal biotin on a linker: ado-ado)

PTPN3, P26045, sequence (P26045 505-587): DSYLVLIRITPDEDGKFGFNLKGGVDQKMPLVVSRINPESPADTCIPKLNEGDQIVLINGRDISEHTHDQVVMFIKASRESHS

Row | Binder | pKd
53 | QELLEYETTV [XKR7, Q5GH72] | 4.85
54 | LRYARPADAL [PPP1R3G, B7ZBB8] | below the threshold

Target: PDZRN4_1, Q6ZMN7
Test: holdup assay
Parameters: key: below the threshold = too weak to quantify, mostly under pKd 3.1 to 4
Settings: plain residues with an end cap or a label only (N-terminal biotin on a linker: ado-ado)

PDZRN4_1, Q6ZMN7, sequence (Q6ZMN7 213-318): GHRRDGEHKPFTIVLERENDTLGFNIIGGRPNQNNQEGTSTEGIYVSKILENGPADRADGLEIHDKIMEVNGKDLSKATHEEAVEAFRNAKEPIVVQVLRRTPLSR

Row | Binder | pKd
55 | QELLEYETTV [XKR7, Q5GH72] | 4.55
56 | LRYARPADAL [PPP1R3G, B7ZBB8] | below the threshold

Target: LDB3, O75112
Test: holdup assay
Parameters: key: below the threshold = too weak to quantify, mostly under pKd 3.1 to 4
Settings: plain residues with an end cap or a label only (N-terminal biotin on a linker: ado-ado)

LDB3, O75112, sequence (O75112 1-94): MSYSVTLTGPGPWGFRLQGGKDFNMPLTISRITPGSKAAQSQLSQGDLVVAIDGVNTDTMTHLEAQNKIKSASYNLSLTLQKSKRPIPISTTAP

Row | Binder | pKd
57 | QELLEYETTV [XKR7, Q5GH72] | below the threshold
58 | LRYARPADAL [PPP1R3G, B7ZBB8] | below the threshold

Target: T8, ARHGAP21, Q5T5U3
T8 sequence (Q5T5U3 45-169, limits assumed, looked up): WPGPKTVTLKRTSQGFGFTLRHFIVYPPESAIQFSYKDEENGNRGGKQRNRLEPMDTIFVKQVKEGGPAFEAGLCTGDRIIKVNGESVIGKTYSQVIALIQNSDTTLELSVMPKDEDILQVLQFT
Test: holdup assay
Parameters: key: below the threshold = too weak to quantify, mostly under pKd 3.1 to 4
Settings: plain residues with an end cap or a label only (N-terminal biotin on a linker: ado-ado)

Row | Binder | pKd
59 | QELLEYETTV [XKR7, Q5GH72] | 4.19
60 | LRYARPADAL [PPP1R3G, B7ZBB8] | 3.9
